Results: paper PMC12589655 (Nature Communications, 2025)

Target: the molecule itself
Assay: SEC-SAXS

B1: CVS wt P3, recombinant (rabies virus CVS-11 phosphoprotein, residues 53-297) (natural protein)
chain: MKRLHLDDEKSSNLGEMVRVGEGKYREDFQMDEGEDPNLLFQSYLDNVGVQIVRQMRSGERFLKIWSQTVEEIVSYVTVNFPNPPRRSSEDKSTQTTGRELKKETTSAFSQRESQPSKARMVAQVAPGPPALEWSATNEEDDLSVEAEIAHQIAESFSKKYKFPSRSSGIFLYNFEQLKMNLDDIVKEAKNVPGVTRLAHDGSKIPLRCVLGWVALANSKKFQLLVEADKLSKIMQDDLNRYTSC
Q: How did the “stoichiometry N” value turn out when B1 was run?
A: 2
